Laboratory results: the supplement of paper PMC10567573

B1: TNXB (parent)
chain: FSEIRETSAKVNWMPPPSRADSFK
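Also: lentivirally expressed fusions sorted by FACS into six bins by GFP to DsRed ratio, PSI derived from sequencing read proportions per bin multiplied by bin number.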

Variants of: B1
Test: protein stability index of a GFP-peptide fusion (GPS, HEK-293T) (PSI 1-6); higher = more stable
Settings: c terminus: a fixed tail appended
Variant P16M has a protein stability index of 2.89.
Work on P16N yielded a protein stability index of 2.89.
P16T gave a protein stability index of 3.27.
Variant E3N has a protein stability index of 3.2.
Work on E3R yielded a protein stability index of 3.13.
Work on E3I yielded a protein stability index of 2.03.
Variant E3S has a protein stability index of 3.09.
For E3A, the protein stability index was 2.4.
With E3W the protein stability index was 2.6.
Work on E3K yielded a protein stability index of 3.68.
In the case of E3P, the protein stability index is reported as 2.52.
Variant E3C has a protein stability index of 1.77.
In the case of E3M, the protein stability index is reported as 2.55.
E3Y gave a protein stability index of 2.21.
Work on E3G yielded a protein stability index of 2.34.
With E3F the protein stability index was 2.38.
Variant E3T has a protein stability index of 3.52.
With E3D the protein stability index was 3.37.
E3L showed a protein stability index of 2.47.
For E3V, the protein stability index was 2.44.
E3H showed a protein stability index of 2.62.
For E3Q, the protein stability index was 3.13.
W13S gave a protein stability index of 3.83.
W13Y showed a protein stability index of 4.06.
With W13D the protein stability index was 4.8.
With W13E the protein stability index was 4.94.
For W13G, the protein stability index was 4.15.
W13F showed a protein stability index of 3.57.
Work on W13Q yielded a protein stability index of 4.23.
In the case of W13N, the protein stability index is reported as 4.49.
For W13I, the protein stability index was 4.47.
For W13K, the protein stability index was 4.55.
Work on W13C yielded a protein stability index of 4.27.
In the case of W13M, the protein stability index is reported as 3.98.
In the case of W13T, the protein stability index is reported as 4.03.
With W13P the protein stability index was 4.43.
Variant W13A has a protein stability index of 4.11.
W13L showed a protein stability index of 4.
With W13V the protein stability index was 4.17.
For W13H, the protein stability index was 3.61.
W13R showed a protein stability index of 4.21.
With S8V the protein stability index was 3.1.
In the case of S8D, the protein stability index is reported as 4.48.
In the case of S8I, the protein stability index is reported as 2.73.
With S8F the protein stability index was 2.51.
S8L gave a protein stability index of 2.79.
S8W gave a protein stability index of 2.1.
Variant S8C has a protein stability index of 3.95.
In the case of S8T, the protein stability index is reported as 3.63.
S8R gave a protein stability index of 2.74.
Work on S8H yielded a protein stability index of 3.4.
In the case of S8G, the protein stability index is reported as 3.15.
With S8K the protein stability index was 2.95.
Work on S8P yielded a protein stability index of 3.3.
For S8N, the protein stability index was 3.73.
S8E gave a protein stability index of 3.5.
S8Y showed a protein stability index of 2.95.
Variant S8A has a protein stability index of 3.5.
Work on S8Q yielded a protein stability index of 3.76.
In the case of S8M, the protein stability index is reported as 3.15.
In the case of K10G, the protein stability index is reported as 3.28.
Variant K10A has a protein stability index of 3.92.
K10H showed a protein stability index of 3.32.
With K10C the protein stability index was 3.
In the case of K10Y, the protein stability index is reported as 2.72.
K10R showed a protein stability index of 3.67.
With K10S the protein stability index was 3.76.
K10P gave a protein stability index of 3.52.
For K10W, the protein stability index was 1.66.
Work on K10N yielded a protein stability index of 2.94.
For K10M, the protein stability index was 3.72.
Variant K10E has a protein stability index of 3.76.
For K10Q, the protein stability index was 4.12.
Work on K10F yielded a protein stability index of 2.09.
In the case of K10I, the protein stability index is reported as 3.06.
Work on K10D yielded a protein stability index of 4.01.
Work on K10L yielded a protein stability index of 3.29.
Work on K10T yielded a protein stability index of 3.96.
Work on M14D yielded a protein stability index of 3.91.
Work on M14E yielded a protein stability index of 4.11.
With M14R the protein stability index was 4.26.
In the case of M14V, the protein stability index is reported as 2.96.
With M14Y the protein stability index was 2.64.
With M14F the protein stability index was 3.13.
Variant M14K has a protein stability index of 3.52.
Variant M14G has a protein stability index of 3.63.
M14I showed a protein stability index of 3.11.
In the case of M14C, the protein stability index is reported as 2.63.
With M14W the protein stability index was 2.98.
For M14H, the protein stability index was 3.44.
M14S showed a protein stability index of 3.92.
M14A showed a protein stability index of 3.17.
In the case of M14Q, the protein stability index is reported as 3.92.
With M14N the protein stability index was 3.4.
M14L gave a protein stability index of 3.31.
In the case of I4D, the protein stability index is reported as 3.99.
In the case of I4T, the protein stability index is reported as 4.29.
I4A showed a protein stability index of 3.76.
Work on I4P yielded a protein stability index of 4.16.
I4H gave a protein stability index of 4.14.
I4S gave a protein stability index of 4.01.
With I4G the protein stability index was 4.34.
With I4W the protein stability index was 1.9.
Variant I4E has a protein stability index of 4.3.
Work on I4M yielded a protein stability index of 3.92.
In the case of I4Y, the protein stability index is reported as 2.94.
I4C showed a protein stability index of 3.49.
With I4R the protein stability index was 3.
I4V gave a protein stability index of 3.56.
I4Q gave a protein stability index of 3.89.
Work on I4F yielded a protein stability index of 2.9.
In the case of I4K, the protein stability index is reported as 3.72.
In the case of I4L, the protein stability index is reported as 3.42.
I4N showed a protein stability index of 3.51.
With V11F the protein stability index was 2.97.
With V11I the protein stability index was 3.77.
With V11S the protein stability index was 3.87.
With V11K the protein stability index was 4.2.
Work on V11Q yielded a protein stability index of 3.65.
For V11L, the protein stability index was 3.29.
Work on V11R yielded a protein stability index of 3.02.
Variant V11N has a protein stability index of 3.45.
V11W gave a protein stability index of 2.73.
For V11D, the protein stability index was 4.12.
With V11P the protein stability index was 4.03.
Work on V11M yielded a protein stability index of 3.17.
Variant V11A has a protein stability index of 3.77.
V11G gave a protein stability index of 3.38.
V11T gave a protein stability index of 3.72.
For V11C, the protein stability index was 3.15.
For V11E, the protein stability index was 4.
V11Y gave a protein stability index of 2.7.
V11H showed a protein stability index of 3.5.
A9L gave a protein stability index of 3.41.
A9F showed a protein stability index of 2.2.
With A9T the protein stability index was 3.46.
In the case of A9S, the protein stability index is reported as 3.75.
For A9W, the protein stability index was 2.46.
A9C gave a protein stability index of 2.38.
In the case of A9Q, the protein stability index is reported as 3.72.
In the case of A9H, the protein stability index is reported as 3.36.
With A9P the protein stability index was 3.33.
A9V showed a protein stability index of 2.35.
A9M gave a protein stability index of 3.32.
A9I showed a protein stability index of 2.83.
In the case of A9G, the protein stability index is reported as 3.04.
With A9E the protein stability index was 4.04.
In the case of A9N, the protein stability index is reported as 2.95.
Variant A9Y has a protein stability index of 2.82.
A9K gave a protein stability index of 3.
Work on A9D yielded a protein stability index of 3.58.
A9R gave a protein stability index of 3.29.
Variant F1T has a protein stability index of 4.07.
For F1I, the protein stability index was 3.46.
F1Q showed a protein stability index of 4.48.
F1N showed a protein stability index of 4.63.
F1R gave a protein stability index of 4.99.
For F1L, the protein stability index was 4.02.
F1H gave a protein stability index of 3.94.
Work on F1M yielded a protein stability index of 4.15.
For F1P, the protein stability index was 4.76.
In the case of F1Y, the protein stability index is reported as 3.98.
Work on F1K yielded a protein stability index of 4.4.
Work on F1G yielded a protein stability index of 4.22.
For F1V, the protein stability index was 4.19.
For F1S, the protein stability index was 4.48.
With F1W the protein stability index was 3.6.
